Data on three molecules can be found in publication PMC10333293, “Membrane recruitment of the polarity protein Scribble by the cell adhesion receptor TMIGD1” (Communications Biology, 2023).

The target of one assay is APC PBM (Homo sapiens) (UniProt P25054). The note with it: cited from earlier work.
Assay [1] has as its target T1, human Scribble PDZ domain 1 (hScrib/PDZ1, AA 728-815) (human, UniProt Q14160 728-815).
T1 construct: human Scribble (Scrib), PDZ domain 1, residues 728-815; source: E. coli BL21 (DE3) CodonPlus or pLysS, purified, tag cleaved
The assay is described as follows: ITC; purified PDZ domain at 75 uM against the 8-mer peptide at 900-1100 uM, 20 injections, 25 °C, 25 mM Tris-HCl pH 8.0, 150 mM NaCl, 5 mM TCEP, one-site binding model. Conditions: both partners purified. In general terms: ITC needs no label: the signal is the heat of the interaction.

The target in assay [2] is T2, human Scribble PDZ domain 3 (hScrib/PDZ3, AA 1005-1094) (human, UniProt Q14160 1005-1094).
T2 construct: human Scribble (Scrib), PDZ domain 3, residues 1005-1094; source: E. coli BL21 (DE3) CodonPlus or pLysS, purified, tag cleaved
T2 sequence (looked up): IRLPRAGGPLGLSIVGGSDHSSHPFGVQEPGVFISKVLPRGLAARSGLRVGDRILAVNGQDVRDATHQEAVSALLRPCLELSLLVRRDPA
The assay is described as above. Conditions: both partners purified.

A further assay has as its target T3, hScrib/PDZ1 (AA 728-815) (human, UniProt Q14160 728-815).
T3 construct: Scribble, human, PDZ1 domain, AA 728-815; In pGEX-6P-3 or pGIL-MBP; also called PDZ domain 1 of Scrib; source: E. coli BL21 (DE3) CodonPlus or pLysS, purified
The assay is described as follows: ITC; peptide (900-1100 µM) titrated into PDZ domain (75 µM); 25 mM Tris-HCl pH 8.0, 150 mM NaCl, 5 mM TCEP; 25 °C; 20 injections; one-site binding model. Conditions: both partners purified.

The target of assay [3] is T4, hScrib/PDZ3 (AA 1005-1094) (human, UniProt Q14160 1005-1094).
T4 construct: Scribble, human, PDZ3 domain, AA 1005-1094; In pGEX-6P-3 or pGIL-MBP; source: E. coli BL21 (DE3) CodonPlus or pLysS, purified
T4 sequence (looked up): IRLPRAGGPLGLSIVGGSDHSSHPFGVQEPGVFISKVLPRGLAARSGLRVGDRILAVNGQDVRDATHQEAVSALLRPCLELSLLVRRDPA
The description is as above. The note with it: both partners purified.

Chain of APC PBM (Homo sapiens) (P25054 whole entry, looked up, the tested form may be a part): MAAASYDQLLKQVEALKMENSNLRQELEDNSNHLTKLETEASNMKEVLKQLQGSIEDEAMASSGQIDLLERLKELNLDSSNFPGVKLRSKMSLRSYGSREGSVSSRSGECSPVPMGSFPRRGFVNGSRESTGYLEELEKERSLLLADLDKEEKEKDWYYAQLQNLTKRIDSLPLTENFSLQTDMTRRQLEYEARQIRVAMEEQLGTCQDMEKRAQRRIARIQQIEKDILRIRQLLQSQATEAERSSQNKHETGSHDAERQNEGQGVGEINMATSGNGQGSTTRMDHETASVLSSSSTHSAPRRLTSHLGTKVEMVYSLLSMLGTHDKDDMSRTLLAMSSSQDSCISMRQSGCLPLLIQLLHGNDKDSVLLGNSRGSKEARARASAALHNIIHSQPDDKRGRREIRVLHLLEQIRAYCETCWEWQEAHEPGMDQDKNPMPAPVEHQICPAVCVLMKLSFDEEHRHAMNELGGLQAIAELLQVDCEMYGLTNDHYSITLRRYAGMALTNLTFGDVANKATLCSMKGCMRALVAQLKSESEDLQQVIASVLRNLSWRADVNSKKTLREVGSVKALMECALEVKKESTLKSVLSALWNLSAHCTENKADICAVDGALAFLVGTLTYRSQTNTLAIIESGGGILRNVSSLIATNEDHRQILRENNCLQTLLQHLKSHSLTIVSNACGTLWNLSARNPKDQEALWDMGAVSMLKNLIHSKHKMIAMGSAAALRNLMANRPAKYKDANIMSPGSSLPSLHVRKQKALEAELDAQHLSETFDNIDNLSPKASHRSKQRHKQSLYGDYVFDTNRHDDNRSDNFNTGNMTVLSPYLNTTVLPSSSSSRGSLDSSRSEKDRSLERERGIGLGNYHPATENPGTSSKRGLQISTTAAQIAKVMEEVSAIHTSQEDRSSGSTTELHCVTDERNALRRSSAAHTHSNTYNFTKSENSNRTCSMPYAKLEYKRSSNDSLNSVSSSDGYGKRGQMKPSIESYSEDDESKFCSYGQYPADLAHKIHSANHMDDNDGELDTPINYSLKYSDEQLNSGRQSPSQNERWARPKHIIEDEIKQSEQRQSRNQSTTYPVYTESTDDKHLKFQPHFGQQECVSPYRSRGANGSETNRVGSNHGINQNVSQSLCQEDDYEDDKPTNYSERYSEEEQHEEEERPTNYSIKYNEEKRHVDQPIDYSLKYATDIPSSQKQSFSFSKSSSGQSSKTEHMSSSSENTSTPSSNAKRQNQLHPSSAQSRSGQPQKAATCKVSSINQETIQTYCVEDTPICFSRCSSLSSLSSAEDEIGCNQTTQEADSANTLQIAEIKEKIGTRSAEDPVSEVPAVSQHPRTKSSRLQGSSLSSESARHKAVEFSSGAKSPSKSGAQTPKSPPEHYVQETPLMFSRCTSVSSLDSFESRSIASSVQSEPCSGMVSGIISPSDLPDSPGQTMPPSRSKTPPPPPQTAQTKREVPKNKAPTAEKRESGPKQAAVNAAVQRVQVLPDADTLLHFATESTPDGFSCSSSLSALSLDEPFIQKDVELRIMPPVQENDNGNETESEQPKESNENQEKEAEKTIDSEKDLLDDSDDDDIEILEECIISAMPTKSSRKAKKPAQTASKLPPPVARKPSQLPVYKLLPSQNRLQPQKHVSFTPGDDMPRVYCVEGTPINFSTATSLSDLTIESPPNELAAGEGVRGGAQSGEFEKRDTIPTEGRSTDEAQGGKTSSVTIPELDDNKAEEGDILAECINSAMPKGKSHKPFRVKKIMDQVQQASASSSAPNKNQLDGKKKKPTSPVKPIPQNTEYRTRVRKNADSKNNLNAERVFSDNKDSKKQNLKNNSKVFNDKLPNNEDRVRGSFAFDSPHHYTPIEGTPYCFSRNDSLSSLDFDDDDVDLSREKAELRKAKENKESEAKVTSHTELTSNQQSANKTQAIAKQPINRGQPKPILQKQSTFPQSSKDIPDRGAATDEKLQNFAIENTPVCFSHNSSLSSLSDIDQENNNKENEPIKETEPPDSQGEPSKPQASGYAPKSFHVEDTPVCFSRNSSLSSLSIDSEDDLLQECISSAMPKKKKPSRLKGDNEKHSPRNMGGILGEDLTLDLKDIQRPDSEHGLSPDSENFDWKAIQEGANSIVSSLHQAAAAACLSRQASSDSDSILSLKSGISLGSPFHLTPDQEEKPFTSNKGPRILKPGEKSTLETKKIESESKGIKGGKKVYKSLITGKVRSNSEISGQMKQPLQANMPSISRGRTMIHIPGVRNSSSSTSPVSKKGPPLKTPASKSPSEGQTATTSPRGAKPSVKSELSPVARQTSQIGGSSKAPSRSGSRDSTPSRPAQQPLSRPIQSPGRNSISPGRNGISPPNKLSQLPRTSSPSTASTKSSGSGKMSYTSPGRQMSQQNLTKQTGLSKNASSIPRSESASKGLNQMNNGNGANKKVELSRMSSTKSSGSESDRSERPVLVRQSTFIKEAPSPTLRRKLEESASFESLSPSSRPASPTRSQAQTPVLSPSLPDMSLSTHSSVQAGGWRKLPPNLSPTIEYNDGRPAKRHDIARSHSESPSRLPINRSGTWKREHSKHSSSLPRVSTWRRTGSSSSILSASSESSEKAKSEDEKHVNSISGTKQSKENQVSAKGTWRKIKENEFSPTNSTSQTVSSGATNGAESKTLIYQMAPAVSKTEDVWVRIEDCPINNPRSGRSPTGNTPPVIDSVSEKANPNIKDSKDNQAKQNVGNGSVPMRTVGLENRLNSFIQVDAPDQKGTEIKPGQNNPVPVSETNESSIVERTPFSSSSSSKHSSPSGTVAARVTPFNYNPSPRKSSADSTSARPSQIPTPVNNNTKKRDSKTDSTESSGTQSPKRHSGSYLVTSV
T3 sequence (Q14160 728-815): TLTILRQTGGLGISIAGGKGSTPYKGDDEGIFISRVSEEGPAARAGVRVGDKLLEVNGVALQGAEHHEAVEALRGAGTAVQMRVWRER
T1 sequence (Q14160 728-815): as above

As for Scribble PDZ1 (from UniProt Q14160), the dissociation constant (Kd) (commonly the constant that tells how readily two partners part at equilibrium) with APC PBM (Homo sapiens) is 6 µM.

B1: C-terminally derived 8-mer human TMIGD1 peptide (peptide)
peptide: DPHSETAL
notes: also called TMIGD1/WT; TMIGD1 PBM peptide; source: synthetic peptide, obtained from Genscript
For the molecule B1, the stoichiometry N (usually a count of units in the complex or per binding partner) in assay [1] worked out at 0.95 ± 0.07; in assay [2], 0.93 ± 0.04.

B2: C-terminally derived 8-mer human TMIGD1 peptide (DPHSETAL) (peptide)
peptide: DPHSETAL
notes: TMIGD1, human, the eight C-terminal residues with the PBM (SETAL), free C-terminal carboxyl; also called TMIGD1/WT; TMIGD1 PBM peptide; source: synthetic peptide (Genscript)
Turning to B2, the dissociation constant Kd with hScrib/PDZ1 (AA 728-815) was 18.2 µM; in assay [3], 9.12 µM.
